The term Kd denotes the constant that tells how readily two partners part at equilibrium. A low value points to a tighter complex.

The test deals with T1, SARS-CoV-2 RBD wildtype, soluble fragment 319-591 with C-terminal 8 × His tag (SARS-CoV-2, UniProt P0DTC2).
T1 construct: source: ExpiCHO-S, transient, purified (His Trap Excel)
The test can be described thus: BLI. To be noted: both partners purified.

B1: CB6 (antibody, V domains shown)
VH: EVQLVESGGGLVQPGGSLRLSCAASGFTVSSNYMSWVRQAPGKGLEWVSVIYSGGSTFYADSVKGRFTISRDNSMNTLFLQMNSLRAEDTAVYYCARVLPMYGDYLDYWGQGTLVTVSS
VL: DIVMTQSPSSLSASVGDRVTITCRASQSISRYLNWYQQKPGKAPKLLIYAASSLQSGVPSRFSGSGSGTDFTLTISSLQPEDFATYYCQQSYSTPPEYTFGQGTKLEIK
notes: source: ExpiCHO, heavy and light chain plasmids cotransfected, purified (Protein A)
Consider B1, for which the Kd is 10.7 nM.
